Test results published in the supplement of paper PMC12042874.
± gives the uncertainty stated by the source.

Assay: amyloid nucleation score (Sup35N fusion, yeast selection) (log enrichment); library NNK3; higher = more nucleation; inactive = no reads after selection
Outline: (§1)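 Peptides of 20 random codons fused to Sup35N were expressed in psi-negative yeast, induced 24 hours with 100 μM copper sulfate, then grown 7 days at 30°C on medium lacking adenine and uracil. Input and output plasmid inserts were Illumina-sequenced. Nucleation score is the DiMSum log enrichment of output over input reads, centred on the mode score of non-aggregating sequences, excluding sequences with under 100 input reads. Random libraries had three technical output replicates.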

| Substance | amyloid nucleation score |
| --- | --- |
| YPLFECSDAPSQDNDTMLTR | inactive |
| YPLLEPSRVLVVCDGKGGVP | inactive |
| YPLNLYYQAFYSLIGLVIPP | inactive |
| YPLRSGF | inactive |
| YPLYVHRCLIMTFMLSLWPR | inactive |
| YQERL | inactive |
| YQGYRFNC | inactive |
| YQIMDPNRLAFVTDMLSRDL | inactive |
| YQNILLAYYDWVVLYQ | inactive |
| YQRYGRGFLRVSSFSLDSRM | -0.352 ± 0.81 |
| YRAYVYEDTFWWAWYQFILL | inactive |
| YRDCISEGLKLSNWNELLGK | inactive |
| YRDFDEDCVIL | inactive |
| YRDRIGWQVVISII | -0.087 ± 0.27 |
| YREVYLNRRLERL | inactive |
| YRKWGCWHRTFRLIYCTVVL | inactive |
| YRLPHS | inactive |
| YRPWHDIRTICCSTSSSTIE | 2.5 ± 0.063 |
| YRRAWRTIILKCTCLNQHV | 0.2 ± 0.42 |
| YRVVC | -0.543 ± 1.5 |
| YRWSPWYNYCSSWTWCQMST | 1.51 ± 0.13 |
| YSANDLPVNAHGEILKVGLL | inactive |

| Substance | amyloid nucleation score |
| --- | --- |
| YSCGFDLAAWAFTDVIRRRI | inactive |
| YSCLLIYVKYGMASIYGRMF | inactive |
| YSCSYNTSTN | -0.52 ± 0.68 |
| YSDKDSLGSGNSFFSFSEKW | inactive |
| YSEFPPTSKQ | inactive |
| YSEYMVTNRKVSAGHTARWD | inactive |
| YSFSNVLVLGSTGPGTSSQA | inactive |
| YSFVAVSSFDREHSRIFGVS | inactive |
| YSFWIVFMRY | inactive |
| YSGFSYVRGLYGSGYVMAQP | -0.192 ± 0.52 |
| YSGIAS | inactive |
| YSGWTPKLAVH | inactive |
| YSIDMHVNVHGTYYLMSKWV | 1.73 ± 0.12 |
| YSISKAFPMLSRLDMDMFGA | inactive |
| YSKRAHVFYES | -0.06 ± 0.36 |
| YSKSLCVFKSICIELDF | 2.08 ± 0.062 |
| YSLRNNFLLVFSLVSDRPIG | 1.06 ± 0.12 |
| YSNLLAYWIQISKWIATGRC | inactive |
| YSNWLTSRNYTNLLLL | inactive |
| YSPTAN | inactive |
| YSSFAANSCFLERVEVKSDL | inactive |
| YSSGGYLTRVRRKGSMYRAL | inactive |

| Substance | amyloid nucleation score |
| --- | --- |
| YSTMLLVHYMFLKIE | inactive |
| YSVTAHPLDHTNPRGNYPDH | inactive |
| YSYNQIWFLLV | inactive |
| YTALL | inactive |
| YTNALPAITFVVIGHLAIQ | 2.64 ± 0.068 |
| YTSGRSVSGRCHLWELKAIK | inactive |
| YTWLAFRFSTSLHPRYSNIG | inactive |
| YVAVGKKLNHRSSSSLSRFF | inactive |
| YVFFIVMASSCWHVHSYNYF | -0.437 ± 0.98 |
| YVLELGAGGPKNMIHDMNAD | inactive |
| YVLFCCCPLMDFITDLSLST | 2.1 ± 0.055 |
| YVLQTFEGSCVLKRLHIRFM | inactive |
| YVSLVSLCMCIRLQGEFLYG | 1.24 ± 0.089 |
| YVSQQYCWPGFFHRVHTGKS | inactive |
| YVSRDVGNRNATSY | inactive |
| YVWASIFFFTSYDEVVGRHV | 1.46 ± 0.13 |
| YWASARTRSGYFDVNKFSGG | inactive |
| YWDDWLNSTGRDPSHKPRRT | 1.95 ± 0.07 |
| YWIEAPIFYPLFTAIVKQAM | 0.294 ± 0.49 |
| YWKRAGPQFGVPDSWTPSGP | inactive |
| YWLDLYSKCLSSSVEISLGI | inactive |
| YWLMKALQIWHSENRFRYIE | inactive |

| Substance | amyloid nucleation score |
| --- | --- |
| YWNIFGVVSN | inactive |
| YWNLIWWAKQWDVFTGEEAL | inactive |
| YWQDGQ | inactive |
| YWRELDSIQCNLFRGQPFNL | inactive |
| YWYIIYAMSGLWYSSVNRVD | inactive |
| YYCTM | inactive |
| YYDYLRWLLEHIHFCTWGPY | inactive |
| YYKRYGGYPGNQHMSVGHRF | inactive |
| YYLFWVAFDMMLRLRFFVMD | inactive |
| YYLGSADGDPDIKWSLGYRK | inactive |
| YYLSTTGMWNFVSSNGALYG | -0.793 ± 1.3 |
| YYLVDRWREFVGYRKKDCVA | inactive |
| YYLVSWYVTTVLKSGLLSVR | inactive |
| YYQGAQPLNPGAR | inactive |
| YYQMRYCQWDAIQVENWVRR | inactive |
| YYRGITMCT | inactive |
| YYTWVCECSYWHSVFM | inactive |
| YYVTQGVRVGQYLTNRERDE | -0.195 ± 0.44 |
| YYWRMYCS | inactive |
| YYYLKCFTYCVLLFYYS | inactive |
| YYYQNRYFELRHLPEFSS | inactive |

Assay: amyloid nucleation score (Sup35N fusion, yeast selection) (log enrichment); library NNK2; higher = more nucleation; inactive = no reads after selection
Outline: as §1

| Substance | amyloid nucleation score |
| --- | --- |
| AAACAGIKFLLTFTFGFRTW | inactive |
| AAAHLH | -0.75 ± 0.76 |
| AAFLAVSGFCNLPGGSTHIL | 2.38 ± 0.079 |
| AAMPLPF | inactive |
| AAVNWNRFPKTVTA | -0.195 ± 0.33 |
| AAVSSCLLFYSC | 3.5 ± 0.082 |
| AAVTFSISYFIKTLHLENSS | 0.169 ± 0.28 |
| AAWNRPHMERRFSYEGYYIV | -0.508 ± 0.63 |
| ACKRGTFQWNACLSPGSCGR | 0.902 ± 0.36 |
| ACSRANLAKKLRGMWRYSAF | -0.199 ± 1.1 |
| ACSYANLLVTLLNSPEMPVE | 0.306 ± 0.5 |
| ACTLCGVWSVFTIFARHKIR | 3.1 ± 0.18 |
| ACTVWIMLRDSCWKARDRSG | 2.95 ± 0.082 |
| ADCLKSCLAMSGF | -0.14 ± 0.8 |
| ADKCYGYASACVFSGSLVC | 0.028 ± 0.56 |
| ADPSDVFMVVVLGSCRAFTV | 1.63 ± 0.47 |
| ADWQYHSVYMNTVRDKCLAQ | -0.06 ± 0.28 |
| AEAYGTSSRRSCCRGRVV | 0.476 ± 0.5 |
| AELSA | 0.606 ± 0.8 |
| AESICSSVRSYGMSSFRDPE | -0.887 ± 0.64 |
| AEVCEVRTFVPYSCLFYSST | 5.22 ± 0.06 |
| AFAVSSLESGWRRRTSLEWL | 0.106 ± 0.55 |
| AFCTKCASMRAILRGGGLVW | -0.109 ± 0.76 |
| AFPNNFTRLYALEVLFGFRN | 2.1 ± 0.21 |
| AFQITSERLGWKKVNHAVRW | 0.432 ± 0.8 |
| AFSFDAW | 2.02 ± 0.14 |

| Substance | amyloid nucleation score |
| --- | --- |
| AFSNSM | 0.988 ± 0.52 |
| AFTSLPLCYSVYGKIKFCPC | 0.433 ± 0.62 |
| AFWKVRLYRRPG | 1.76 ± 0.24 |
| AFWVLTVPLGSWYCACYCYS | -0.662 ± 0.39 |
| AGASSRKWGLYDVYVERSEA | inactive |
| AGDAAN | inactive |
| AGFTLYFGMTRNYQYSDCSP | 4.23 ± 0.066 |
| AHCVRVLHIKSRMVVSWESR | 4.19 ± 0.099 |
| AHHPYTNQGSTVRSRAGQWG | 0.519 ± 0.54 |
| AHHYSESRGFRCCLTSGYFC | 0.818 ± 0.25 |
| AHLVCRLYETMQLYLYLQWY | -1.01 ± 0.3 |
| AHYRR | -0.226 ± 0.45 |
| AIEKSQYLSNVDYRICSLMT | -0.336 ± 0.23 |
| AINCKTGRKLNWIVFGRFTV | -0.315 ± 0.25 |
| AIRGTECYWLAWVGLAVKRR | 1.12 ± 0.23 |
| AKFTL | -0.253 ± 0.3 |
| AKLLSAVVWDCHWV | 5.17 ± 0.055 |
| AKYRLVVLSEFYSLTPRVLD | -0.107 ± 1 |
| ALEMSMGKCFWGLVVVIMRW | -0.899 ± 0.36 |
| ALGHIQLKLHCWDYGKRCAS | 0.623 ± 0.25 |
| ALGTEFSVPKFTDGVNMAAR | -0.451 ± 0.48 |
| ALKSCVLNDKVRRFLAWRLG | -0.183 ± 0.54 |
| ALLVRVIRYRGSRNESRCPA | 1.42 ± 0.34 |
| ALLYYSMCCRFMRPTSAYHV | 0.246 ± 1.1 |
| ALMSCLLCVHWRLDSATGGR | 5.64 ± 0.09 |
| ALMVEDRH | 0.382 ± 0.8 |

| Substance | amyloid nucleation score |
| --- | --- |
| ALNDAGYT | -0.656 ± 0.27 |
| ALSDCL | -0.427 ± 0.45 |
| ALSFYNY | -0.282 ± 0.76 |
| ALTFTGV | 0.286 ± 0.41 |
| ALWGF | -0.235 ± 0.38 |
| ALYMDVRL | 1.53 ± 0.19 |
| ALYRSGHLMLTVNGGCWWDF | 0.45 ± 0.8 |
| AMLDP | -0.191 ± 0.41 |
| AMTVSWWCCLMYVDMG | 10.59 ± 0.037 |
| AMYINWSLFVKLSRRMRYQR | inactive |
| ANKKIDSGNGLLDFQQNSQK | -0.249 ± 1 |
| ANNRGVSLDPGVHCVGVLLK | 0.551 ± 0.51 |
| ANYTCTLTSL | -0.056 ± 0.21 |
| APLNLSFIHPTFIWLYCLLG | 4.27 ± 0.05 |
| ARIAETSRYKRSENSLSLV | -0.88 ± 0.76 |
| ARNIGDCRDVSCDWCFSYAF | 5.13 ± 0.064 |
| ARSPCCLYQMHIYFAKAFAD | -0.599 ± 0.33 |
| ASAGCTTGTLGGPHHRHMIV | 0.523 ± 0.26 |
| ASDVKGSANDVVGFWVLPDQ | 5.907 ± 0.049 |
| ASGDGLNFWPFRSPTDAQRA | 0.775 ± 0.5 |
| ASGVNFGT | -0.215 ± 0.45 |
| ASSYMRWVEARTRYLACAEN | 4.665 ± 0.046 |
| ASVENGSALIIRESDMSGGN | 0.556 ± 0.43 |
| ASVIQGVRLLFFRNLARSTS | 0.011 ± 0.79 |
